Results from patent US20060264378A1 (BIOKINE THERAPEUTICS, published 2006).
Numbered stars: 1 amine (or outer) side, 2 acyl side, 3 side chain; on linkers, the order of the positions; unused ones are H or OH. Bridge positions count the residues as written; N and C are the ends. Square brackets hold non-standard residues; d marks the D form. Ends that are not written are not given here. * marks the point of attachment. deaminoTMG = tetramethylguanyl on 5-aminopentanoyl (deaminoTMG-APA, formula II); guanyl = guanyl, N-terminal group, N=C(N)*; 2Nal = N[C@@H](Cc1ccc2ccccc2c1)C(=O)O; Glutaryl = O=C(CCCC(=O)[*:2])[*:1]; Benzoyl(4-F) = O=C(c1ccc(F)cc1)*; dCit = NC(=O)NCCC[C@@H](N)C(=O)O; Cit = NC(=O)NCCC[C@H](N)C(=O)O; Suc = O=C(CCC(=O)[*:2])[*:1]; Ahx = NCCCCCC(=O)O; Ava = NCCCCC(=O)O

biological target: T1, CXCR4 receptor (human, UniProt P61073 1-352); experiment: displacement of 125I-CXCL12 from Jurkat cells, filter binding
T1 construct: whole, on cells; Endogenous receptor on human cells
Method: 50 μL of Jurkat human T-cell leukemia cells (6×10⁶ cells/mL) suspended in buffer (Dulbecco's PBS solution (pH 7.0) containing 0.5% BSA, 20 mM HEPES), 25 μL of test compounds (Table 2: each compound being synthesized in the form of acetate salt) diluted by buffer and 25 μL of 200 p M 125I-CXCL12 solution were respectively dispensed to each well of the plate, and were subjected to fixation reaction for 1 hour at room temperature. After reaction, suction was made toward the reaction solution by 96 well GF/C filter plate, and each well's radioactivity was measured by top count. As the radioactivity index of 100% when the test compound was not added, and 0% when 100 nM of non-radioisotope-labeled CXCL12 was added, the inhibitory activity of each test compound was measured.

T1 sequence (P61073 whole entry): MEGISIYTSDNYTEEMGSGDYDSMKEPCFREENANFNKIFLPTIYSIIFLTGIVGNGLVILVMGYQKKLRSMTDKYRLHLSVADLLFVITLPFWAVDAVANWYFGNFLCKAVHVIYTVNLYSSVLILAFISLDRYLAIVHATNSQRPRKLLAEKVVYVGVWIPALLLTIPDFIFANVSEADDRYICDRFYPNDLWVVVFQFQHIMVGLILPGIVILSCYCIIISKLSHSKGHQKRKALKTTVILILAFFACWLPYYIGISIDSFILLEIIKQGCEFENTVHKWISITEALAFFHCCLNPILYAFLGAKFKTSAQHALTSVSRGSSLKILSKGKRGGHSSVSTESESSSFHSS

Binder	IC50
{Benzoyl(4-F)}-RR[2Nal]CY[Cit]K[dK]PYR[Cit]CR-NH2 (disulfide 4-13; also: acetate salt) [4F-benzoyl-TN14003]	0.99 nM
Ac-RR[2Nal]CY[Cit]K[dE]PYR[Cit]CR-NH2 (disulfide 4-13; also: acetate salt) [TF1]	11 nM
guanyl-RR[2Nal]CY[Cit]K[dE]PYR[Cit]CR-NH2 (disulfide 4-13; also: acetate salt) [TF2]	3.3 nM
tetramethylguanyl-RR[2Nal]CY[Cit]K[dE]PYR[Cit]CR-NH2 (disulfide 4-13; also: acetate salt) [TF3]	9.6 nM
tetramethylguanyl-R[2Nal]CY[Cit]K[dE]PYR[Cit]CR-NH2 (disulfide 3-12; also: acetate salt) [TF4]	9.9 nM
{Benzoyl(4-F)}-RR[2Nal]CY[Cit]K[dE]PYR[Cit]CR-NH2 (disulfide 4-13; also: acetate salt) [TF5]	2.8 nM
{2‑fluorobenzoyl}-RR[2Nal]CY[Cit]K[dE]PYR[Cit]CR-NH2 (disulfide 4-13; also: acetate salt) [TF6]	3.9 nM
{5‑aminopentanoyl}-R[2Nal]CY[Cit]K[dE]PYR[Cit]CR-NH2 (disulfide 3-12; also: acetate salt) [TF7]	5.7 nM
{2‑desamino‑arginyl}-R[2Nal]CY[Cit]K[dE]PYR[Cit]CR-NH2 (disulfide 3-12; also: acetate salt) [TF8]	8.2 nM
guanyl-R[2Nal]CY[Cit]K[dE]PYR[Cit]CR-NH2 (disulfide 3-12; also: acetate salt) [TF9]	250 nM
H-RE[2Nal]CYRK[dK]PYR[Cit]CR-OH (disulfide 4-13; also: acetate salt) [TE14002]	680 nM
Suc-R[2Nal]CY[Cit]K[dE]PYR[Cit]CR-NH2 (disulfide 3-12; also: acetate salt) [TF10]	48 nM
Glutaryl-R[2Nal]CY[Cit]K[dE]PYR[Cit]CR-NH2 (disulfide 3-12; also: acetate salt) [TF11]	630 nM
{deaminoTMG-Ava}-R[2Nal]CY[Cit]K[dE]PYR[Cit]CR-NH2 (disulfide 3-12; also: acetate salt) [TF12]	4.6 nM
{nelfinaviryl-Suc}-R[2Nal]CY[Cit]K[dE]PYR[Cit]CR-NH2 (disulfide 3-12; also: acetate salt) [TF13]	21 nM
{AZT-Glutaryl}-R[2Nal]CY[Cit]K[dE]PYR[Cit]CR-NH2 (disulfide 3-12; also: acetate salt) [TF14]	49 nM
H-RR[2Nal]CY[Cit]K[dE]PYR[Cit]CR-NH2 (disulfide 4-13; also: reduced CH2-NH bond between residues 1 and 2, acetate salt) [TF15]	95 nM
H-R[2Nal]CY[Cit]K[dE]PYR[Cit]CR-NH2 (disulfide 3-12; also: acetate salt) [TF17]	79 nM
XRRXCYXKXPYRXCRX (N-terminal tetramethylguanyl; Nal (L-3-(2-naphthyl)alanine) at 3; Cit (L-citrulline) at 6 and 12; D-Cit (D-citrulline) at 8; disulfide Cys4-Cys13; C-terminal amide (-NH2)) [TF18]	8 nM
XRRXCYXKXPYRXCRX (N-terminal 6-aminohexanoyl (ACA); Nal (L-3-(2-naphthyl)alanine) at 3; Cit (L-citrulline) at 6 and 12; D-Cit (D-citrulline) at 8; disulfide Cys4-Cys13; C-terminal amide (-NH2)) [TF19]	4.5 nM
[Ahx]RR[2Nal]CYRK[dK]PYR[Cit]CR-OH (disulfide 5-14; also: acetate salt) [TF20]	3.5 nM
H-RR[2Nal]CYEK[dK]PYR[Cit]CR-OH (disulfide 4-13 (inferred); not fully specified; printed as H-Arg-Arg-Nal-Cys-Tyr-Glu-Lys-DLys-Pro-Tyr-Arg-Cit-Cys-Arg-OH; also: acetate salt) [TE14003]	5 nM
H-RR[2Nal]CYRE[dK]PYR[Cit]CR-OH (disulfide 4-13 (inferred); not fully specified; printed as H-Arg-Arg-Nal-Cys-Tyr-Arg-Glu-DLys-Pro-Tyr-Arg-Cit-Cys-Arg-OH; also: acetate salt) [TE14004]	6.8 nM
H-RR[2Nal]CYRK[dE]PYR[Cit]CR-OH (disulfide 4-13; also: acetate salt) [TE14005]	2.2 nM
H-RR[2Nal]CYRK[dK]PYE[Cit]CR-OH (disulfide 4-13 (inferred); also: acetate salt) [TE14006]	5.6 nM
H-RR[2Nal]CY[Cit]K[dE]PYR[Cit]CR-NH2 (disulfide 4-13; also: acetate salt) [TE14011]	2.9 nM
H-RR[2Nal]CY[dE]K[dCit]PYR[Cit]CR-NH2 (disulfide 4-13 (inferred); also: acetate salt) [TE14012]	5.4 nM
H-RR[2Nal]CY[dE]K[dE]PYR[Cit]CR-NH2 (disulfide 4-13; also: acetate salt) [TE14013]	9.3 nM
RRXCYXKXPYRXCR (X at 3 = Nal (L-3-(2-naphthyl)alanine); X at 6 and 12 = Cit (L-citrulline); X at 8 = D-Cit (D-citrulline); disulfide Cys4-Cys13; free N-terminus (H-); C-terminal amide (-NH2), Tested as acetate salt) [TC14012]	2.7 nM
H-RR[2Nal]CY[Cit]K[dK]PYR[Cit]CR-NH2 (disulfide 4-13; also: acetate salt, Tested as acetate salt) [TN14003]	2.6 nM

biological target: T1, CXCR4 receptor; experiment: cell-based or functional assay

Binder	IC50 of inhibition of SDF-1α-induced migration of Jurkat cells (Transwell)
{Benzoyl(4-F)}-RR[2Nal]CY[Cit]K[dK]PYR[Cit]CR-NH2 (disulfide 4-13; also: acetate salt) [4F-benzoyl-TN14003]	0.65 nM

biological target: CXCR4 on mouse splenocytes (mouse, UniProt P70658 1-359); experiment: cell-based or functional assay
Sequence (P70658 whole entry): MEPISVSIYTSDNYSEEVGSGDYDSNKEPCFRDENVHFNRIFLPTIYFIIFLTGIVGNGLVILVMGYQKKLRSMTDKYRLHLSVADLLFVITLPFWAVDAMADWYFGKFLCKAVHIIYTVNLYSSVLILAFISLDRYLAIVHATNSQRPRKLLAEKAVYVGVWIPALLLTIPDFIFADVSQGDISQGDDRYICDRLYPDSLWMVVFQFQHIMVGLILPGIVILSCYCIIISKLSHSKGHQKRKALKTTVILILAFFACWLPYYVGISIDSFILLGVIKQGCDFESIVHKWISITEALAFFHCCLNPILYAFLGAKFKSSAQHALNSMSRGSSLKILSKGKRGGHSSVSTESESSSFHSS

Binder	IC50 of inhibition of SDF-1-induced migration of mouse splenocytes (Transwell)
{Benzoyl(4-F)}-RR[2Nal]CY[Cit]K[dK]PYR[Cit]CR-NH2 (disulfide 4-13; also: acetate salt) [4F-benzoyl-TN14003]	0.54 nM
